Results from patent publication US20210340208A1 (ANWITA BIOSCIENCES, published 2021).

Assays:
IL-2Rα-Fc fusion protein = target: T1, IL-2Rα-Fc fusion protein (human, UniProt P01589 22-240); assay: BLI (Octet RED96), IL-2Rα-Fc on AHC biosensor
T1 construct: also called human IL-2Rα (CD25); CD25; not shown: Fc part and any linker are not described; captured on an anti-human IgG Fc sensor
T1 sequence: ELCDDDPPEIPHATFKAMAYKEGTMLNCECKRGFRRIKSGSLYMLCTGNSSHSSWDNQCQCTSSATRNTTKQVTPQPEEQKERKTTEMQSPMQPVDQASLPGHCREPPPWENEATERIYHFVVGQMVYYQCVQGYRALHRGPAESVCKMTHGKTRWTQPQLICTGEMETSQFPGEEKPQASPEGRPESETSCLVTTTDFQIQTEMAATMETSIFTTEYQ
Method: OCTET® RED96 was used to characterize the interactions of a wild-type hIL-2 and hIL-2 muteins with a human IL-2Rα (CD25). Briefly, an IL-2Rα-Fc fusion protein was loaded onto an anti-human IgG Fc capture (AHC) biosensor. The biosensor was then dipped into a solution containing a wild-type hIL-2 (WT IL-2) or an IL-2 mutein at various concentrations. Primary experimental data was analyzed with global fitting to determine a binding affinity (Kd).

[1] = target: T2, IL-2Rα, β, and γ chains on preactivated human CD3 T-cells (human, UniProt P01589 22-272; P14784 27-551; P31785 23-369); assay: cell-based or functional assay
T2 sequence (looked up) 1: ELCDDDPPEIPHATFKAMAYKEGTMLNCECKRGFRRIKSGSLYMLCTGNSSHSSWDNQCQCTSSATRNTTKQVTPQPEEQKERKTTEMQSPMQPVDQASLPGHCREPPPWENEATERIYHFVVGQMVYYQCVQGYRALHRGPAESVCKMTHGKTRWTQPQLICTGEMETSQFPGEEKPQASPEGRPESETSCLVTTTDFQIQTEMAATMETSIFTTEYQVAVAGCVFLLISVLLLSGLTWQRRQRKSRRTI
T2 sequence (looked up) 2: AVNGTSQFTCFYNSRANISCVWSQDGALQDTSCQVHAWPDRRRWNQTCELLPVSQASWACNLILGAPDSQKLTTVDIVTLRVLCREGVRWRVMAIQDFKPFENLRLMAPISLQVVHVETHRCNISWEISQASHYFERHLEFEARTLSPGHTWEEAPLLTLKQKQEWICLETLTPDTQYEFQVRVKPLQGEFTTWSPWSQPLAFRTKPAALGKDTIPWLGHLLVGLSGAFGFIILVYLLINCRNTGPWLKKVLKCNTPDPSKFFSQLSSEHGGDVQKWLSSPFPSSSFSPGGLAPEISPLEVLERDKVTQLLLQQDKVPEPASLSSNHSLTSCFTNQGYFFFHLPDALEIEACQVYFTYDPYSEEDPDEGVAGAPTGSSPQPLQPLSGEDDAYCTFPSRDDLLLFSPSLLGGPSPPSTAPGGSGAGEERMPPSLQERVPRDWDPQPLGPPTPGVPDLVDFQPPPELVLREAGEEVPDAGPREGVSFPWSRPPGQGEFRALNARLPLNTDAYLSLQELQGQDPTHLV
T2 sequence (looked up) 3: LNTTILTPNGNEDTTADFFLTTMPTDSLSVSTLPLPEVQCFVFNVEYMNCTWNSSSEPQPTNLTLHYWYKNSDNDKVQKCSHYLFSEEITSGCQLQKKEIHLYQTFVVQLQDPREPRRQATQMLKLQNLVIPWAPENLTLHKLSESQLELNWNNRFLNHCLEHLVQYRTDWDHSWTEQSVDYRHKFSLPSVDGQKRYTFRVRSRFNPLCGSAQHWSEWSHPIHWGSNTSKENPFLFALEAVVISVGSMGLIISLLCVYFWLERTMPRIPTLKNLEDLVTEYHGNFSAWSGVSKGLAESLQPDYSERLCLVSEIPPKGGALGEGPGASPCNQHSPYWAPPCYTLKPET

B1: hIL-2-anti-HSA A37 (ligand)
chain: APTSSSTKKTQLQLEHLLLDLQMILNGINNYENPKLTRMLTAKFYMPKKATELKHLQCLEEELKPLEEVLNLAQSKNFHLRPRDLISNINVIVLELKGSETTFMCEYADETATIVEFLNRWITFSQSIISTLTGSGGSGGSGGSGEVQLVESGGGLVQPGGSLRLSCAASGSTWSINTLAWYRQAPGKQRDLVARISSGGSTYYADSVKGRFTISRDNSKNTLYLQMNSLRAEDTAVYYCYAQSTWYPPSWGQGTLVTVSS
notes: fused to anti-HSA VHH; also called IL2 mutein (K32E, F42A, C125S)
binding result (IL-2Rα-Fc fusion protein): no binding | EC50 of STAT5 phosphorylation (phospho-STAT5 Tyr694 HTRF) [1]: 0.92 nM
